According to article PMC6097932 (Molecular cell, 2018):

Target: the molecule itself
Assay: SEC

B1: FANCA-WT (natural protein, human, UniProt O15360 1-1455, looked up)
chain: MSDSWVPNSASGQDPGGRRRAWAELLAGRVKREKYNPERAQKLKESAVRLLRSHQDLNALLLEVEGPLCKKLSLSKVIDCDSSEAYANHSSSFIGSALQDQASRLGVPVGILSAGMVASSVGQICTAPAETSHPVLLTVEQRKKLSSLLEFAQYLLAHSMFSRLSFCQELWKIQSSLLLEAVWHLHVQGIVSLQELLESHPDMHAVGSWLFRNLCCLCEQMEASCQHADVARAMLSDFVQMFVLRGFQKNSDLRRTVEPEKMPQVTVDVLQRMLIFALDALAAGVQEESSTHKIVRCWFGVFSGHTLGSVISTDPLKRFFSHTLTQILTHSPVLKASDAVQMQREWSFARTHPLLTSLYRRLFVMLSAEELVGHLQEVLETQEVHWQRVLSFVSALVVCFPEAQQLLEDWVARLMAQAFESCQLDSMVTAFLVVRQAALEGPSAFLSYADWFKASFGSTRGYHGCSKKALVFLFTFLSELVPFESPRYLQVHILHPPLVPGKYRSLLTDYISLAKTRLADLKVSIENMGLYEDLSSAGDITEPHSQALQDVEKAIMVFEHTGNIPVTVMEASIFRRPYYVSHFLPALLTPRVLPKVPDSRVAFIESLKRADKIPPSLYSTYCQACSAAEEKPEDAALGVRAEPNSAEEPLGQLTAALGELRASMTDPSQRDVISAQVAVISERLRAVLGHNEDDSSVEISKIQLSINTPRLEPREHMAVDLLLTSFCQNLMAASSVAPPERQGPWAALFVRTMCGRVLPAVLTRLCQLLRHQGPSLSAPHVLGLAALAVHLGESRSALPEVDVGPPAPGAGLPVPALFDSLLTCRTRDSLFFCLKFCTAAISYSLCKFSSQSRDTLCSCLSPGLIKKFQFLMFRLFSEARQPLSEEDVASLSWRPLHLPSADWQRAALSLWTHRTFREVLKEEDVHLTYQDWLHLELEIQPEADALSDTERQDFHQWAIHEHFLPESSASGGCDGDLQAACTILVNALMDFHQSSRSYDHSENSDLVFGGRTGNEDIISRLQEMVADLELQQDLIVPLGHTPSQEHFLFEIFRRRLQALTSGWSVAASLQRQRELLMYKRILLRLPSSVLCGSSFQAEQPITARCEQFFHLVNSEMRNFCSHGGALTQDITAHFFRGLLNACLRSRDPSLMVDFILAKCQTKCPLILTSALVWWPSLEPVLLCRWRRHCQSPLPRELQKLQEGRQFASDFLSPEAASPAPNPDWLSAAALHFAIQQVREENIRKQLKKLDCEREELLVFLFFFSLMGLLSSHLTSNSTTDLPKAFHVCAAILECLEKRKISWLALFQLTESDLRLGRLLLRVAPDQHTRLLPFAFYSLLSYFHEDAAIREEAFLHVAVDMYLKLVQLFVAGDTSTVSPPAGRSLELKGQGNPVELITKARLFLLQLIPRCPKKSFSHVAELLADRGDCDPEVSAALQSRQQAAPDADLSQEPHLF
  stoichiometry N: 2
